Reference: paper PMC10381268, “VEGF Detection via Impedance Spectroscopy on Surface Functionalized Interdigitated Biosensor”

Target: VEGF165 (vascular endothelial growth factor) (UniProt P15692-4 27-191)
Assay: impedance spectroscopy on aptamer-grafted interdigitated sensor; 5 and 50 pM VEGF in PBS; 10 kHz impedance 50.32 (water), 28.90 (5 pM), 12.81 kOhm (50 pM); proteins diluted in PBS (5 and 50 pM), about 25 °C, impedance 2.5-100 kHz; aptamer grafted at 50 nM, pH 8, 24 h; water pH 7 as control
Details: protein: commercial; chain copies: 2

VEGF165 (vascular endothelial growth factor), sequence (P15692 other isoform, or with tags, fused parts or gaps): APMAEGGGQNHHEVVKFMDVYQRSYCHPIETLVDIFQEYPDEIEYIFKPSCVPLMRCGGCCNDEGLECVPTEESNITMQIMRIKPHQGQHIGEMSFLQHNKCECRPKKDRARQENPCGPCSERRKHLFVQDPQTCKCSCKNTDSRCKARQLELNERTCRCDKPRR

B1: VEGF165 DNA aptamer (ssDNA)
DNA: ATACCAGTCTATTCAATTGGGCCCGTCCGTATGGTGGGTGTGCTGGCCAGATAGTATGTGCAATCA
modifications: grafted on NHS-functionalized mercapto monolayer; attachment group on the DNA not stated
binding result: binds
